Assay results published in the NTF2 design screens of Basanta et al. (2020).

Assay: protease stability score; higher = more stable; yeast display proteolysis, trypsin and chymotrypsin;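 also: log10 excess protease needed over predicted unfolded state with 0 meaning unfolded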

DHQELAEKWFRTFVTNQERGDEESLVKMADKDVRLHIGDKTIHGREQFHHWIQELRRRVDHQSMTVRHIDVQGDKIRIDAEAVFNVNGRNDKFKIDIEAEIQGDKVVLKRIIFN
protease stability score: 1.63

DHQESAHRLHNTLKTIWSENDPDKYSELIDENVHVDVGDKKFRGRDEAKKLAEHIMRRADHIEIRLTSIDVHGNTIRIVVELNFNHDGTSSSVTVVVVLENHNGNFRVKKIRES
protease stability score: 0.017

DHQVVRSFMDVLETGDWDKLKDLVDPNAKMFYGNKDLTGRDAQTHFSEVMKRRVDEIKIDSYDMKGDSAWADFVLVFNGVEIRFILRVQFHNGNVISMRFEVTDPKQKTQLDRAAS
protease stability score: 0.714

DHRAEEAFRRWEEALKTGDPDQAKEQVDPNARFEYGDESIRGMDNVQKWLRTQMEKQRIDVKVKDVKTRPGHVEISAHVVWEHNGTPNSATFVQQNTATGDDVKHVKVQEHK
protease stability score: -0.27

DHRAFELAKNILEAIRTNDPDTVKHQLDKNATLRYGEFEVHGREDASRFVETLIRKMRVEFDIKDYHVHGDSAVMDADVKVERNGRPDTRKLNVNVNVHNGKMSHIVFELRG
protease stability score: 0.693

DHRAIHLVRENLDARRHNDSKKAREMADKDATFHIGDRFIHGMDSFVKTLTDENREMRIEIERMSYNDRPGRVEVKQDVRENHNGSPKRFTYHAEMHVQGDHVRTQTEHRTD
protease stability score: -0.281

DHRALSQVEQFMNALQQGDEKRLMELADPNVKIIIGDKDVHGREEWDRQVHKRRHEIQYEVRRVKMHVNGDTVHVKIRAVATINGKPFEVEYTANFKIDNGHITHIDWQLPDEYLKRVKS
protease stability score: 0.062

DHRAVEVIKEMFKALQTGDERRIVEMADKDATATVGDKRVHGMKEAAHDIATEFNEMRFQLSIKRVQHSGNNVKADVEATFHHNGKPRKVQVVIVLRLHNGKVQEMSIRNDG
protease stability score: 1.17

DHRQQVRDIFKEMQDARRKGNEKTLQKLVDPNAKAEYGDKTYHGRENVAKMLLDEAKRVDHFEVHIKTFSIKNGTARVHADVVVKHDGQKRSTDVFYVFRDHNGQMLLVRARTQ
protease stability score: 1.38

DHRVEEVFRRYLEAFQDNNPEKAMRLVDPNAKLSVGDTTLDGREDIKKFVRTRHNEQRVKYEIKQIEVDGDKIRVVADLKNQHNGTPDRDTVKMSASVRNGKIKDLKQTTDK
protease stability score: -0.132

DHSDAEQVHRAIEENNFDELVDLADENVSVTIGDYTLHGREDFKHYQEVLKRQVDNVEFKTIDIQGDKIDRTVEATVNGRRYVARIVVKVKNGKIKSQKVHATDEKQNEQLRENLK
protease stability score: -0.043

DHSEVTDVFRKLVKVLRTGDESTAAELFDEDVEFEIGDKTYKGREEAHDLLRQFQDMADHVQLNDVRVQGNKVHAEFRADVNGRELHFTQSAEVHNGKIKKVVIRFTNEEQYREIHS
protease stability score: 1.59

DHSKHLTNVIKRMQRLFKHGNFSEVAKQADKDVEVRVGDKTYNGRDQYVDSQRKIEHQVDNADLKFQHVDNQGDKIDVIYEFVVVHNGRHEKTTEQAVLSLHNGRVRATKIHDS
protease stability score: -0.102

DHSQLEIVIEWVKALQEGDPDKAKKNMDKNVKLDIGDKRLEGRDEVRKEMETMKKSARFDLHIDSYNVHGDHAELRVTFRNDHNGRPKKDRNTIRATAHNGRITYLSVEHTG
protease stability score: 0.708

DHTAARIAKEIMENQDKGDEDRLRKLLDKDVRLKYGDKEIHGREHAARTLKRERRQIRIDRRIRHVEIQGDEVSIEFDMHVQHNGKPRDRKAVMVFRMQGDKLEEMTQDNTK
protease stability score: 0.191

DHTADRIIRNLMDALNQNDEDKAVKLMDENVRFRIGDKEYQGRERWKKLLQDWNKHASIRYTVDSMDRRGEKVHVKFELKVNINGNPVTVRVTVEFEIRNGKIKSAVYEMDPDDAKEVWS
protease stability score: 0.925

DHTELETLARRMVDAMRTGDPDKLAELADPNVKVTYGDKSVHGHEQFTKQMKEFVDQYDHVRVERLKIEGDKVHADLNAEHNGRSSRFIMLITVKNGRVKHLKFKNR
protease stability score: 0.472

DHTEVKKQNEQVRKALTQGDPKTMKKMFDPNVKLQVGEKSYRGHKDLQKWAEEMHKRVDHARVDSVHARGNHVTVDVVFNINGREKRLTLRVSYHNGRINEVHMTDG
protease stability score: 0.745

DHTIDEVFKQFETAKNDNDPDQLKKNADPNVDYTVGDQFVEGREHAADDIRRRREQQRNEIRSLRHSVQGNDIDVSVDMEVEHNGKPSDFTQRIDVVAHNGKIKHQTAHQEG
protease stability score: -0.505

DHTKEARQVRRFVHALETGDPDRAASQLDKNAKVTVGDKRVHGRENVRTLMQEFIREADHFRLRDMRDDGEKFNLLIEFEVNGKRLRMHIDIVISNGTMKVVRFDPNVVKRMEN
protease stability score: 0.144

DHTKIARRLMEDLTDARRHNDPHHVKNLLDKDVKIRVGDKSVDGEEEATKQMIERQRRADHIEMRIKSVSTHNGQLRIIFDVREVHNGQEHTDREEVQFDNENGKVRMVNVQQK
protease stability score: -0.056

DHTKQAETVARQMLEQLRDGNPEELKNMFDENVEADIGDTRYHGRESMVEFWQTILTRVDRNRLHIVDVQVQGNKIIVRVRVSFDRNGRQKEEEYVIVVRVNNGHYTADVVSLT
protease stability score: 0.772

DHTVLEKAATALKQGDTDKMNKLADENVKMKVGDKEFHGRQQVNTALKRIKEQVDHRSIRSIENRGNRVTIDANVVVNGKHVDVNFILVVHNGRLKMFQIRVTDPQVHRRLSEIMS
protease stability score: 0.722

DKDAAQLFHQYLEAKKHNNEDQLRENMDPNVQWTIGDKVITGREEAAKRMVDENREQRVEISHMQVHDNNGHAVFRADVRYKHNGKPSRSRFVVRVQARNGKIHSVKVERHS
protease stability score: 0.076

DKDAARRFNEMLQQIHTGNEQEVSKLVDEDADVKVGEKDVHGREQIHSEVKKMRDELSYRVQVNEFDDRGDKIRFNIRVRKNTNGKPKTSRNNLTVVVHNGRIKEVKAESDG
protease stability score: 0.095

DKDAARRVQEMIRQQQTGNPTEVEEQADKDVEFKVGDKVVHGRRELKKEVETHKRESRLEVQKIEIKDHGDKAKLIIYFRVHENGEPRKRTVQVRAKYQNGKVKMIEVDSTK
protease stability score: -0.006

DKDALRVFERFLEAVETNDPKQVQEQADPNAHFDIGDRTYHGMDEIATKMFEEQEKIHLSVQIRDVKDHGDKAVIKAEFSSERNGKPHSKTVRIEVQAHNGQMVKLVMTDDQ
protease stability score: -0.309

DKDAQKKATEFLTAWEQGNESQLQKLMDPNAKVEIGDKVIDGREDWNRWIRERLKRMRFEIKSVDVQVHGDNVDINIDARVNHNGKPDRMTAKFVMRVHNGRIKSMTQHNDK
protease stability score: 1.29

DKDAVKRFEELLRALDTNNSEQVKDLLDKNVQFRVGDKVIHGMEEAVRRQIQHNNEIRVEKEIKSIDDHNGRIHVDMTREWEHNGQPRSEKVKFTIEMHNGRVQVDNQKVTS
protease stability score: -0.098

DKDDFKEAEHILRTGDPDEWSKMVDPNARAEVGDEEIHGKEEFDRWMQKKKKRVDHEQVKSVDFHGDKWRVVLVFNVNGRQADVVMVMQVHNGRLVYQVVRFRDHQVKDVVRKRLS
protease stability score: 0.336

DKDDLRRMHQLVTRNNPQKFKQQADKDAKVQYGDKTVTGMTDAARQMVKFWRQADHIEVKHVDVNGDKLNVVMRMNVNGRNLHMVVYYVVSNGHVRSASVTFTDPHQQEEFEKNAS
protease stability score: 0.316

DKDDQKRFTDTATKILQHNNPEKMRELADKDARLVVGDRTYTGRRQIVRHMEHLFRRVDHVQIKHVDVRGDHVEIDAVLDYNGRKERMTFVFQAHNGRIKQVEVQTG
protease stability score: 0.603

DKDERHRIAHRLNEAIRTGDPHQMLRLADKNVKVQIGEKDVRGKDAIDKYARDLRKKVDHIQLRSLDVQGEEITMTIVFNVNGRRETVVYHVDYHNGQVKRVMVRSK
protease stability score: 0.043

DKDLIERDKQWWTAVRHNNPDRLSENVDENASVRIGDKEVHGRKDISRLIKHLRDTMHESYKIERVNKEEGRANIQASATRDHNGRPRTARVQVIVEAHNGRIKRIQVQFNS
protease stability score: -0.336

DKDTEQHFADSMNQIIEQGNPKKAMKLADKDVQMQIGDKTYKGREEMMKQIKRFWKHVDEIRVKDVKVNDGQININVILDFNGKKVEVRIVIHVHNGKIHELRVDPKDKEQFEK
protease stability score: 1.09

DKEALDEIEKAARENDWEKLAKMADPNVTATIGNYRVHGRSQFEKWARRVRQEVDHIEVKSIDVHGEKARVNYVIVFNGHNVTAQVQIEAHNGHITYMEVDYTDEDQVRHVKDMLS
protease stability score: 1.6

DKEALRVFEKMLQAQRTGNPQEVRKQVDENARFQVGDKTIQGRERFAEDVDRQRKNMRLDYKHIDNKDHNGQAQADAKVRVNVNGRPIEHSAQFHFSAHNGKLVQLHVQMDEDVRRQIEK
protease stability score: -0.233

DKEASDHATRIAQTNNPQKAVDKADPDVKATYGNKVYNGKNQARDVAKQFDEHFDRVEVKSVDNDGETVRADVRARFNGKTMEFTFVIVMSNGHVKMLFIDVRNPEDQEDLDRLLT
protease stability score: -0.188

DKEAVNIATRYMKAWEQGDSDTLMKLMDEDVRVHYGDKVLEGREDVSRDLKRLLDHAQFEIKHVTNKDNGSVVIVNFHMIVNVNGEPVEVKVVVHFHMHNGRIKQIVIRIDPKQLRQIKG
protease stability score: 1.41

DKEDAEKVMKTMMKVVEKGDPEQLMKVGSEGVEYQAGDLKAHGPEALKQVMDYLQKHGVRLEIKHAEVEGNTVRTYVEYKNGEETDTVEANADVDGGKIDRVEVEVGERAEKWLKHG
protease stability score: -0.57

DKEDVDHLERIMRKGDWDQLKDHADKDVTVVVGDRNIHGREKANNFLKRFKERVDHQEVRRLDVSGNEVVVDMVFNVNGRKIRATVVAVAHNGRLKEVVMRFTSEDDKRRATEAFD
protease stability score: 0.454

DKEDVKKRAEELAEVLQTGDPRKMRDLADKDARLSIGDKEYHGREEISKWVDHMRRDVDHFKLDDVQASGNKMRLTFVLQHNGRRSKFDLDVKYSNGRAKELRFDRK
protease stability score: 0.267

DKEDWTRLTNVLEDNNEHQFQDMLDKDVKIDVGDKRIHGRERAKHFLRKYEREVDEITVYSINVSGDNVKVDRVAKHNGQSVRFVMVFRAHNGKVQEMRIEFRDERQKEIWNQLEQ
protease stability score: 0.231

DKEEAKKILDKAVKAVENGNLEELKQMGKEGVEYELIDKKAHGPEVVHKVMEKLQRHGAELEFKRVQVEGDTVHTVVDYRVGDTEMRATAEATVQGGRIDKVRIEMSEEAQKTIKHG
protease stability score: -0.272

DKEEAQKVAEQMVKAIKNGNLDELADAGDDGVDYQVGDEKKRGREDIKRHVEKLQKAGVEMEVKEVRVEGNEVETKLTYKIGNTEVTVKVTVEVEGGKINRVEVRMSEEVEKTVRHG
protease stability score: -0.193

DKEEARKVLEELIKAVESGNPKDLKKYGKDGVKYRLGDREAHGPEAVYKQFEQIHRQGVELRFEDTKVEGDKVTTRVTYRNGDETYTVQIHAEVRGGKIDRVEADLSDKAKEVVKHG
protease stability score: -0.066

DKEEFEKTAKTFMKVWTNGDPDQWKELMDPNARLQIGDKEWHGREEVREAITQFHDRVDHIEVKDLKVTEDHVRLIAVVRFNGREVKVTVNIHFENGRATHVENHFTDDDQLKRNLS
protease stability score: -0.084

DKEELQHLIRLEEHNDWDKFARQAPPNATLQVGDRVVHGREEAVKFAEKLKKRVDHISIESIDRRGEKLQIVYTMVVDGKRVKAVVVLRASNGRAQSVVFQARDPHDQQVIKENLS
protease stability score: 0.178

DKEELSWAKKVLEKNNWESLAENADENAKVDVGDKRYSGREQVEHLMNQLRRRVDHVEYKHIDSKGDKLVADFQVVVNGREVKVRLQMNVHNGRVRHLTMEARNEDDKRFLKEMLD
protease stability score: 1.3

DKEENHMFQQAFTVEWTGDPEKVNRLMDPNAKIEVGEKRVHGMDKYAREVKREHDDMRVDVRTYSNDVHNGEVDVKVNYVKNNNGRPRHVSQSIRAHASNGKVKSVQVTERG
protease stability score: -0.299
